Experimental data: PMC8501605

Molecular target: T1, pseudokinase mixed lineage kinase domain-like (MLKL) (human (endogenous in post-mortem hippocampus)), Q8NB16
T1 chain: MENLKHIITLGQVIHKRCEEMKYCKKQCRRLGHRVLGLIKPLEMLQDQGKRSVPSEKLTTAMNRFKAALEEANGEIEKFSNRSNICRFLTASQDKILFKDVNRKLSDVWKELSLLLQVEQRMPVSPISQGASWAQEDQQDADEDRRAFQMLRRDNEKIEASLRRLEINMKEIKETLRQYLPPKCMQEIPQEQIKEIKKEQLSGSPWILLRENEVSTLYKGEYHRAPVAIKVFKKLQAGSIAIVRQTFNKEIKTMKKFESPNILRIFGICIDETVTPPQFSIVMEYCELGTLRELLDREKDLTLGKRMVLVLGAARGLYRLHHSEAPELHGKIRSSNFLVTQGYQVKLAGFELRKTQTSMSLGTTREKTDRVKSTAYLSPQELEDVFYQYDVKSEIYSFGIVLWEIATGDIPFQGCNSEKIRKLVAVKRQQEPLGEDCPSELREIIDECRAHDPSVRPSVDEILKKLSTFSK
Assay: non-reducing gel and western blot; hippocampal grey matter extracted in native conditions (TBS, 0.1% Triton X-100), run on 7.5% gel in non-reducing conditions, blot for MLKL; AD (n = 14) and control (n = 8) cases
Conditions: remark: other sources report otherwise

B1: pseudokinase mixed lineage kinase domain-like (MLKL), Q8NB16 1-471 (natural protein)
chain: MENLKHIITLGQVIHKRCEEMKYCKKQCRRLGHRVLGLIKPLEMLQDQGKRSVPSEKLTTAMNRFKAALEEANGEIEKFSNRSNICRFLTASQDKILFKDVNRKLSDVWKELSLLLQVEQRMPVSPISQGASWAQEDQQDADEDRRAFQMLRRDNEKIEASLRRLEINMKEIKETLRQYLPPKCMQEIPQEQIKEIKKEQLSGSPWILLRENEVSTLYKGEYHRAPVAIKVFKKLQAGSIAIVRQTFNKEIKTMKKFESPNILRIFGICIDETVTPPQFSIVMEYCELGTLRELLDREKDLTLGKRMVLVLGAARGLYRLHHSEAPELHGKIRSSNFLVTQGYQVKLAGFELRKTQTSMSLGTTREKTDRVKSTAYLSPQELEDVFYQYDVKSEIYSFGIVLWEIATGDIPFQGCNSEKIRKLVAVKRQQEPLGEDCPSELREIIDECRAHDPSVRPSVDEILKKLSTFSK
stoichiometry N: 4
